Measured values reported in paper PMC10407282, “An efficient selenium transport pathway of selenoprotein P utilizing a high-affinity ApoER2 receptor variant and being independent of selenocysteine lyase” (The Journal of Biological Chemistry, 2023).

Molecular target: T1, ^75Se-labeled selenoprotein P prepared from HepG2 cells (human (endogenous in HepG2), UniProt P49908 20-381, ^75Se label (cells cultured with ^75Se as selenite); selenocysteine residues)
T1 construct: Selenoprotein P, human, secreted by HepG2 cells that express it endogenously; single band at 69 kDa; also called ^75Se-labeled SeP; ^75Se-labeled human SeP; source: endogenous, HepG2 conditioned medium with ^75Se selenite, partially purified (Ni-NTA agarose, PD-10)
T1 sequence (looked up): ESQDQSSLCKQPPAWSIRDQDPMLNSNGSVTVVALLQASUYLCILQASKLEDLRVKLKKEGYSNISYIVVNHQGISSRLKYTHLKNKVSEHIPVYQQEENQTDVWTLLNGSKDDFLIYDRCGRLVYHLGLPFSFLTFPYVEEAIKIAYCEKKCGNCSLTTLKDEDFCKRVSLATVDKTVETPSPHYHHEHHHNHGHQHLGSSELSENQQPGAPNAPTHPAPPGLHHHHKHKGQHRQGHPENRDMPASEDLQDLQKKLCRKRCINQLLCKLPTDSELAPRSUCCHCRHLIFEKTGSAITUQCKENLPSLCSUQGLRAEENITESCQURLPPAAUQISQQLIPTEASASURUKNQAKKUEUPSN
Assay: radioligand binding; Jurkat cells (1.4 x 10^7) with serial dilution of ^75Se-labeled SeP, 1 h at 4 °C, RPMI 1640 with 0.1% BSA, 0.1% NaN3, 50 mM Hepes pH 7.4; nonspecific binding with 500-fold excess of unlabeled SeP; Scatchard analysis, n = 4
Settings: one partner purified

B1: Apolipoprotein E receptor 2, 140-kDa variant endogenous on Jurkat cells (JΔ5,18) (receptor)
chain: AADPLLGGQGPAKDCEKDQFQCRNERCIPSVWRCDEDDDCLDHSDEDDCPKKTCADSDFTCDNGHCIHERWKCDGEEECPDGSDESEATCTKQVCPAEKLSCGPTSHKCVPASWRCDGEKDCEGGADEAGCATSLGTCRGDEFQCGDGTCVLAIKHCNQEQDCPDGSDEAGCLQGLNECLHNNGGCSHICTDLKIGFECTCPAGFQLLDQKTCGDIDECKDPDACSQICVNYKGYFKCECYPGYEMDLLTKNCKAAAGKSPSLIFTNRHEVRRIDLVKRNYSRLIPMLKNVVALDVEVATNRIYWCDLSYRKIYSAYMDKASDPKEQEVLIDEQLHSPEGLAVDWVHKHIYWTDSGNKTISVATVDGGRRRTLFSRNLSEPRAIAVDPLRGFMYWSDWGDQAKIEKSGLNGVDRQTLVSDNIEWPNGITLDLLSQRLYWVDSKLHQLSSIDFSGGNRKTLISSTDFLSHPFGIAVFEDKVFWTDLENEAIFSANRLNGLEISILAENLNNPHDIVIFHELKQPRAPDACELSVQPNGGCEYLCLPAPQISSHSPKYTCACPDTMWLGPDMKRCYRAPQSTSTTTLASTMTRTVPATTRAPGTTVHRSTYQNHSTETPSLTAAVPSSVSVPRAPSISPSTLSPATSNHSQHYANEDSKMGSTVTAAVIGIIVPIVVIALLCMSGYLIWRNWKRKNTKSMNFDNPVYRKTTEEEDEDELHIGRTAQIGHVYPARVALSLEDDGLP
modifications: highly glycosylated O-linked sugar domain
Kd: 0.67 nM
